Laboratory results reported in US10450368.

Legend:
CH0505_CON D7gp120/293i = experiment: ELISA
CH505.M10D8gp120 = experiment: ELISA
CH505.M11D8gp120/293F = experiment: ELISA
CH505.M19D8gp120 = experiment: ELISA
CH505.M21D8gp120/293F = experiment: ELISA
CH505.M5D8gp120293F = experiment: ELISA
CH505.M7D8gp120/293F = experiment: ELISA
CH505.M9D8gp120/293F = experiment: ELISA
[1] = biological target: CH505.TF mutant gp120 M20 (HIV-1); experiment: ELISA
[2] = biological target: CH505.TF mutant gp120 M6 (HIV-1); experiment: ELISA
[3] = biological target: CH505.TF mutant gp120 M8 (HIV-1); experiment: ELISA
CH505.w30.12D8gp120 = experiment: ELISA
CH505w020.14D8gp120 = experiment: ELISA
CH505w030.20D8gp120/293F = experiment: ELISA
CH505w136.B18D8gp120 = experiment: ELISA
Centromere B [4] = biological target: Centromere B (UniProt P07199); experiment: AtheNA, Ab 25 ug/ml
Sequence of Centromere B (P07199 whole entry): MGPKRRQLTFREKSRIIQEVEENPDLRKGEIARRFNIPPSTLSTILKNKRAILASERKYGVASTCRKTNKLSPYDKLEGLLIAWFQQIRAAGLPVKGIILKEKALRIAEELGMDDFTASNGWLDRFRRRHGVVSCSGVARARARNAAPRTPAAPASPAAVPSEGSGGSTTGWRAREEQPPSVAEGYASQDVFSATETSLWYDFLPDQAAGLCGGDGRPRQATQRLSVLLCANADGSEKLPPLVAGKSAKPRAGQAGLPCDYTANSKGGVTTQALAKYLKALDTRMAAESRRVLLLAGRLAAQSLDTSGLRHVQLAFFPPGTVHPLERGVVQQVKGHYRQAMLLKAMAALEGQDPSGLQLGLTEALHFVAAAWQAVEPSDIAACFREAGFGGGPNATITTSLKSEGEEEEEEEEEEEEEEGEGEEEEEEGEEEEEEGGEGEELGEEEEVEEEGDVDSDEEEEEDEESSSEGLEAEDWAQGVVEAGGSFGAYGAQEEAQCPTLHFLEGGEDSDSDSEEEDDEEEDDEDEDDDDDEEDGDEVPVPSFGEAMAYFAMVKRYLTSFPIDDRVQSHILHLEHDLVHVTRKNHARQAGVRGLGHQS

Histones [5] = experiment: AtheNA, Ab 25 ug/ml
Jo-1 [6] = biological target: Jo-1 (UniProt P12081); experiment: AtheNA, Ab 25 ug/ml
Sequence of Jo-1 (P12081 whole entry): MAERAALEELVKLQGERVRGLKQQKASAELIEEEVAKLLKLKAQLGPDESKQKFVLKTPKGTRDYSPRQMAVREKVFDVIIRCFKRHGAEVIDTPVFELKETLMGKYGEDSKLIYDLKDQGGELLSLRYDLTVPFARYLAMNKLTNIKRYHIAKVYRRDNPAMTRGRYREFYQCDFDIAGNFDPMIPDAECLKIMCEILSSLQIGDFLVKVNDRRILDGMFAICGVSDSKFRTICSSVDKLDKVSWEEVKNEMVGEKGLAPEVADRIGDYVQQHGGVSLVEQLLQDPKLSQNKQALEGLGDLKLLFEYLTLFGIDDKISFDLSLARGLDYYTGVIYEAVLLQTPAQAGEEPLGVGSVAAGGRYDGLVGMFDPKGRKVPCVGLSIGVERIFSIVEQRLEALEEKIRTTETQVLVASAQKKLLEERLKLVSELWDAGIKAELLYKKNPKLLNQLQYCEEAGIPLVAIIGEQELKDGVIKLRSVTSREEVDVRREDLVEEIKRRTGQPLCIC

RNP (ribonucleoprotein) [7] = experiment: AtheNA, Ab 25 ug/ml
SSA [8] = experiment: AtheNA, Ab 25 ug/ml
SSB [9] = biological target: SSB (UniProt P05455); experiment: AtheNA, Ab 25 ug/ml
Sequence of SSB (P05455 whole entry): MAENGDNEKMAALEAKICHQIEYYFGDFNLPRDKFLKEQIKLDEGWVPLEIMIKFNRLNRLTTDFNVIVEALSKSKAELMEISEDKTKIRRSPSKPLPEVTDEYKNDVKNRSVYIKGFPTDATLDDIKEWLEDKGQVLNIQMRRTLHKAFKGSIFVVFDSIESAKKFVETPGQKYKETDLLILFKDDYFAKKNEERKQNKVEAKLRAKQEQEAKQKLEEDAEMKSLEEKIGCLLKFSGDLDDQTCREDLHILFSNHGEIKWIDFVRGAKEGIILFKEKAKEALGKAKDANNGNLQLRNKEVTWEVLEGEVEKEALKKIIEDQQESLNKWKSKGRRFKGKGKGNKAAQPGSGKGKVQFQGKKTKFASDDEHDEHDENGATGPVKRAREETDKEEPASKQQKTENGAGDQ

Scl-70 [10] = biological target: Scl-70 (UniProt P11387); experiment: AtheNA, Ab 25 ug/ml
Sequence of Scl-70 (P11387 whole entry): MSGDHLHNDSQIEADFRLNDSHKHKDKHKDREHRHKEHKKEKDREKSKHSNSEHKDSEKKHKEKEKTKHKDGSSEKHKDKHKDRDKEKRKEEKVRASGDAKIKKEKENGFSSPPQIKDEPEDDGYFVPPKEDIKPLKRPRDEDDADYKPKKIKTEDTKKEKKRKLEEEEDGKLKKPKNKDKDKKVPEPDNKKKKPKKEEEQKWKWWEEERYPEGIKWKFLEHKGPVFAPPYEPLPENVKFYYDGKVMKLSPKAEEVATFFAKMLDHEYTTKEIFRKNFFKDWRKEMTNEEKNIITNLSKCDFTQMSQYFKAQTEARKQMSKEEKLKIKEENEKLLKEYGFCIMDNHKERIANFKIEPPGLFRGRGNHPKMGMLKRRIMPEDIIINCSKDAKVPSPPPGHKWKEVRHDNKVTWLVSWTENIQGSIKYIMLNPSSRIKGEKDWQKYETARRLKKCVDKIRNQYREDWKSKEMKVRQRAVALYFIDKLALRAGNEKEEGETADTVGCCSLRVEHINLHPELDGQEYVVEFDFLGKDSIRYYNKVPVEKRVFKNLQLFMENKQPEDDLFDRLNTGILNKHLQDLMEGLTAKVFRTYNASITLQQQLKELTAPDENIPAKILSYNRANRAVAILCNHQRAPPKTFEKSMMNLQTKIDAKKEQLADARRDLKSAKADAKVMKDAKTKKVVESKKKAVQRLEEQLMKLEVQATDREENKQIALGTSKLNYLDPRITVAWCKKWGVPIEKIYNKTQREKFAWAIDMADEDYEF

Sm (Smith antigen) [11] = experiment: AtheNA, Ab 25 ug/ml
Histones [12] = experiment: AtheNA, Ab 50 ug/ml
Jo-1 [13] = biological target: Jo-1 (UniProt P12081); experiment: AtheNA, Ab 50 ug/ml
SSA [14] = experiment: AtheNA, Ab 50 ug/ml
SSB [15] = biological target: SSB (UniProt P05455); experiment: AtheNA, Ab 50 ug/ml
Sm (Smith antigen) [16] = experiment: AtheNA, Ab 50 ug/ml
Centromere B [17] = biological target: Centromere B (UniProt P07199); experiment: AtheNA, Ab 12.5 ug/ml
Histones [18] = experiment: AtheNA, Ab 12.5 ug/ml
Jo-1 [19] = biological target: Jo-1 (UniProt P12081); experiment: AtheNA, Ab 12.5 ug/ml
RNP (ribonucleoprotein) [20] = experiment: AtheNA, Ab 12.5 ug/ml
SSA [21] = experiment: AtheNA, Ab 12.5 ug/ml
SSB [22] = biological target: SSB (UniProt P05455); experiment: AtheNA, Ab 12.5 ug/ml
Scl-70 [23] = biological target: Scl-70 (UniProt P11387); experiment: AtheNA, Ab 12.5 ug/ml
Sm (Smith antigen) [24] = experiment: AtheNA, Ab 12.5 ug/ml
Centromere B [25] = biological target: Centromere B (UniProt P07199); experiment: AtheNA, Ab 6.25 ug/ml
Histones [26] = experiment: AtheNA, Ab 6.25 ug/ml
Jo-1 [27] = biological target: Jo-1 (UniProt P12081); experiment: AtheNA, Ab 6.25 ug/ml
RNP (ribonucleoprotein) [28] = experiment: AtheNA, Ab 6.25 ug/ml
SSA [29] = experiment: AtheNA, Ab 6.25 ug/ml
SSB [30] = biological target: SSB (UniProt P05455); experiment: AtheNA, Ab 6.25 ug/ml
Scl-70 [31] = biological target: Scl-70 (UniProt P11387); experiment: AtheNA, Ab 6.25 ug/ml
Sm (Smith antigen) [32] = experiment: AtheNA, Ab 6.25 ug/ml
[33] = biological target: HIV-1 CH505 transmitted/founder gp120 Env (HIV-1); experiment: competition ELISA, blocking of sCD4 binding to gp120
[34] = biological target: HIV-1 CH505 transmitted/founder gp120 Env (HIV-1); experiment: competition ELISA, blocking of CH106 binding to gp120

Substance: CH235 IA1 (antibody)
- LogAUC (CH0505_CON D7gp120/293i): 6.89
- LogAUC (CH505.M10D8gp120): 7.08
- LogAUC (CH505.M11D8gp120/293F): 2.85
- LogAUC (CH505.M19D8gp120): 2.78
- LogAUC (CH505.M21D8gp120/293F): 0
- LogAUC (CH505.M5D8gp120293F): 9.18
- LogAUC (CH505.M7D8gp120/293F): 0
- LogAUC (CH505.M9D8gp120/293F): 0
- LogAUC [1]: 0
- LogAUC [2]: 6.1
- LogAUC [3]: 0
- LogAUC (CH505.w30.12D8gp120): 2.4
- LogAUC (CH505w020.14D8gp120): 6.52
- LogAUC (CH505w030.20D8gp120/293F): 4.82
- LogAUC (CH505w136.B18D8gp120): 2.36
- AtheNA signal (relative luminescence units) (Centromere B [4]): 80
- AtheNA signal (relative luminescence units) (Histones [5]): 99
- AtheNA signal (relative luminescence units) (Jo-1 [6]): 171
- AtheNA signal (relative luminescence units) (RNP (ribonucleoprotein) [7]): 67
- AtheNA signal (relative luminescence units) (SSA [8]): 150
- AtheNA signal (relative luminescence units) (SSB [9]): 197
- AtheNA signal (relative luminescence units) (Scl-70 [10]): 52
- AtheNA signal (relative luminescence units) (Sm (Smith antigen) [11]): 110
- AtheNA signal (relative luminescence units) (Histones [12]): 100
- AtheNA signal (relative luminescence units) (Jo-1 [13]): 176
- AtheNA signal (relative luminescence units) (SSA [14]): 149
- AtheNA signal (relative luminescence units) (SSB [15]): 217
- AtheNA signal (relative luminescence units) (Sm (Smith antigen) [16]): 104
- AtheNA signal (relative luminescence units) (Centromere B [17]): 81
- AtheNA signal (relative luminescence units) (Histones [18]): 100
- AtheNA signal (relative luminescence units) (Jo-1 [19]): 152
- AtheNA signal (relative luminescence units) (RNP (ribonucleoprotein) [20]): 56
- AtheNA signal (relative luminescence units) (SSA [21]): 151
- AtheNA signal (relative luminescence units) (SSB [22]): 167
- AtheNA signal (relative luminescence units) (Scl-70 [23]): 40
- AtheNA signal (relative luminescence units) (Sm (Smith antigen) [24]): 77
- AtheNA signal (relative luminescence units) (Centromere B [25]): 87
- AtheNA signal (relative luminescence units) (Histones [26]): 118
- AtheNA signal (relative luminescence units) (Jo-1 [27]): 129
- AtheNA signal (relative luminescence units) (RNP (ribonucleoprotein) [28]): 46
- AtheNA signal (relative luminescence units) (SSA [29]): 175
- AtheNA signal (relative luminescence units) (SSB [30]): 117
- AtheNA signal (relative luminescence units) (Scl-70 [31]): 31
- AtheNA signal (relative luminescence units) (Sm (Smith antigen) [32]): 77
- IC50 [33]: > 100 mg/L
- IC50 [34]: 82.4 mg/L
